Assay results: the supplement of paper PMC10065799, “High-throughput profiling of sequence recognition by tyrosine kinases and SH2 domains using bacterial peptide display” (eLife, 2023)

Assays:
SHP2-C SH2 = assay: SH2 binding enrichment of the phosphorylated peptide, bacterial display (enrichment ratio); higher = better substrate or ligand; peptides without Tyr show the background
Grb2 SH2 = Grb2 SH2 (UniProt P62993); assay: as above
c-Src SH2 = assay: as above
Fer (mouse) = assay: phosphorylation enrichment, bacterial display (enrichment ratio); higher = better substrate or ligand; peptides without Tyr show the background
Fes = Fes (UniProt P07332); assay: as above
Hck = Hck (UniProt P08631); assay: as above
c-Src = assay: as above
MERTK = MERTK (UniProt Q12866); assay: as above
FGFR1 = FGFR1 (UniProt P11362); assay: as above
c-Abl (mouse) = assay: as above
AncSZ = assay: as above
Fyn = Fyn (UniProt P06241); assay: as above
EPHB1 = EPHB1 (UniProt P54762); assay: as above
FGFR3 = FGFR3 (UniProt P22607); assay: as above
EPHB2 = EPHB2 (UniProt P29323); assay: as above
Jak2 = Jak2 (UniProt O60674); assay: as above
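For SH2 binding enrichment of the phosphorylated peptide, bacterial display in this document: peptide library displayed on the E. coli surface as eCPX fusions, selected cells deep-sequenced, score is each peptide's frequency after selection divided by its frequency in the input.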
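For phosphorylation enrichment, bacterial display in this document: 11-residue human phosphosite peptides and single-mutation variants displayed on the E. coli surface, counted by deep sequencing, each peptide's frequency after selection divided by its frequency in the unselected input library; frequency after pTyr selection over input frequency; kinase dosed for 20-30% of maximal phosphorylation in three min.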

Sequence of EPHB2 (P29323 whole entry, looked up): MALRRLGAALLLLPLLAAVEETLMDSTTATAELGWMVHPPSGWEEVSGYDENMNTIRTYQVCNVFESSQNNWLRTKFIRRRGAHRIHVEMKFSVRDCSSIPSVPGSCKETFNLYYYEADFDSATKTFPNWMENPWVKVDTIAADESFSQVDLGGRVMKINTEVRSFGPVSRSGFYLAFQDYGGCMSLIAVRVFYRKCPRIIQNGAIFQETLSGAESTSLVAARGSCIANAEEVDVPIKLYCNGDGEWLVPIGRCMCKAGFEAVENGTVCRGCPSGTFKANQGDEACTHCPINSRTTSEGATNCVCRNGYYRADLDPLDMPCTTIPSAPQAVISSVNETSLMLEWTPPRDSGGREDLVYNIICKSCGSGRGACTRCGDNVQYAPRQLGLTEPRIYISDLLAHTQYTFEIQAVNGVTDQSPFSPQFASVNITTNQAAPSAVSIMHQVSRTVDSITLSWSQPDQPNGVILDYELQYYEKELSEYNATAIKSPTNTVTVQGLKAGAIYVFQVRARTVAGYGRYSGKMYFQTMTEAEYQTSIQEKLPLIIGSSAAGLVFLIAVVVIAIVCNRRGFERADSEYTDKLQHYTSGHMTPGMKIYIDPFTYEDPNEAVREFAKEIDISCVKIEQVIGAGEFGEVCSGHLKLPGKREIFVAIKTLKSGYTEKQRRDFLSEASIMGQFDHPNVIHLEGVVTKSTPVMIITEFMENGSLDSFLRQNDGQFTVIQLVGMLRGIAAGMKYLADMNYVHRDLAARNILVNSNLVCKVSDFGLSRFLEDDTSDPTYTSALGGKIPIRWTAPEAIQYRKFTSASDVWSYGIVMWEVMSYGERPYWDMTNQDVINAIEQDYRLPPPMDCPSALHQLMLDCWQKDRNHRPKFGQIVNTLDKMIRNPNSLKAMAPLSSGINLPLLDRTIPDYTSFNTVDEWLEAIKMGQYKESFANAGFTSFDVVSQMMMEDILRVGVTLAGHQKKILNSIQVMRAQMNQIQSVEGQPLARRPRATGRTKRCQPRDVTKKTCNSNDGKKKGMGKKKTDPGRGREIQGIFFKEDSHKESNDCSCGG
Sequence of FGFR1 (P11362 whole entry, looked up): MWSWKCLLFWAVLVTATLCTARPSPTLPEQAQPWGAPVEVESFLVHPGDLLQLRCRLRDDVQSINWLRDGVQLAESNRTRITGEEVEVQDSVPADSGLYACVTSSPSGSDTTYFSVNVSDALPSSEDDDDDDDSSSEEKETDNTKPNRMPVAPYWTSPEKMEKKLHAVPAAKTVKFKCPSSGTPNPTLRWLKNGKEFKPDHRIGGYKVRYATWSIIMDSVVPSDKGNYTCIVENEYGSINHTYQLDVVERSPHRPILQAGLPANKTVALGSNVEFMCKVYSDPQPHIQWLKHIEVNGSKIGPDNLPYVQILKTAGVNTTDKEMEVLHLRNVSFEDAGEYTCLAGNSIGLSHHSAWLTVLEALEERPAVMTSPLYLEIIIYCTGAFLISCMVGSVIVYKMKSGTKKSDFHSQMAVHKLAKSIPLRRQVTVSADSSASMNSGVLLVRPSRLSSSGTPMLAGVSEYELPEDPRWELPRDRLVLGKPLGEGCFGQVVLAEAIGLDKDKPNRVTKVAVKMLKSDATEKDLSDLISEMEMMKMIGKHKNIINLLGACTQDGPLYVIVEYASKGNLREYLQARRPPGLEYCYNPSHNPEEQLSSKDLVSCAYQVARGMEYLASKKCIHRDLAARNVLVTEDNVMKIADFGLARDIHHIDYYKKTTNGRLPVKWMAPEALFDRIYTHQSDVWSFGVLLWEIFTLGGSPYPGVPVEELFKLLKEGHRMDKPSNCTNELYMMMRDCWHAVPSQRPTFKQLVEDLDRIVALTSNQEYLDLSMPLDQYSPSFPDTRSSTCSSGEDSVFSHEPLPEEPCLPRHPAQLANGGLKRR
Sequence of Jak2 (O60674 whole entry, looked up, the tested form may be a part): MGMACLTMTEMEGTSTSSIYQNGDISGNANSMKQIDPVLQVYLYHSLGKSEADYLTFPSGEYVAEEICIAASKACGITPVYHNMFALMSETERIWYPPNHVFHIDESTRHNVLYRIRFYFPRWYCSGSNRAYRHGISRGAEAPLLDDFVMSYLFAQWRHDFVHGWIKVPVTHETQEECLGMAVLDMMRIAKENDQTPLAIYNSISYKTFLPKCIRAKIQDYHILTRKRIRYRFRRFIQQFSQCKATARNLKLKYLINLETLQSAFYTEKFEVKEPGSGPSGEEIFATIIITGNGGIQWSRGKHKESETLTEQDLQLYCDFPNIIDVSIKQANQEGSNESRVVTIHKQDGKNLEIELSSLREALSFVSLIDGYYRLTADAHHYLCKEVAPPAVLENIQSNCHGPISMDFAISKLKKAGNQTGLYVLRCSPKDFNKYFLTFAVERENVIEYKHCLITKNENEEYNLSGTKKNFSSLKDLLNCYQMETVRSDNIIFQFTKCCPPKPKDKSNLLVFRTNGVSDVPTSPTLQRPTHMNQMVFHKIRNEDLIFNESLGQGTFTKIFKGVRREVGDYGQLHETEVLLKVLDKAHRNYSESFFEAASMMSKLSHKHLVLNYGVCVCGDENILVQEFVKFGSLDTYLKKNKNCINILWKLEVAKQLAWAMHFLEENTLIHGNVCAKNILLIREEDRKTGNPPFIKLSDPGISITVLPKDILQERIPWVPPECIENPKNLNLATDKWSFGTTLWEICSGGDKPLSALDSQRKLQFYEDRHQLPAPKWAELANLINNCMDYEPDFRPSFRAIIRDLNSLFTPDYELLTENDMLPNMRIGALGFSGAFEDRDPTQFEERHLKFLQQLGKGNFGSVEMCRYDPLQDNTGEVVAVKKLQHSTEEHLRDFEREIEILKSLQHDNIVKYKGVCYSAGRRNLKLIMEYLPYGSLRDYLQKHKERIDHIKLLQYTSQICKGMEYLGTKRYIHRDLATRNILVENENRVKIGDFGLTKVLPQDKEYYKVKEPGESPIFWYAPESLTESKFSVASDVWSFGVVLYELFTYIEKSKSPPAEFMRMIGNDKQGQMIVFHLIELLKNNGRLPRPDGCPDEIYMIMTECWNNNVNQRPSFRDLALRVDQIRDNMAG
Sequence of Fyn (P06241 whole entry, looked up): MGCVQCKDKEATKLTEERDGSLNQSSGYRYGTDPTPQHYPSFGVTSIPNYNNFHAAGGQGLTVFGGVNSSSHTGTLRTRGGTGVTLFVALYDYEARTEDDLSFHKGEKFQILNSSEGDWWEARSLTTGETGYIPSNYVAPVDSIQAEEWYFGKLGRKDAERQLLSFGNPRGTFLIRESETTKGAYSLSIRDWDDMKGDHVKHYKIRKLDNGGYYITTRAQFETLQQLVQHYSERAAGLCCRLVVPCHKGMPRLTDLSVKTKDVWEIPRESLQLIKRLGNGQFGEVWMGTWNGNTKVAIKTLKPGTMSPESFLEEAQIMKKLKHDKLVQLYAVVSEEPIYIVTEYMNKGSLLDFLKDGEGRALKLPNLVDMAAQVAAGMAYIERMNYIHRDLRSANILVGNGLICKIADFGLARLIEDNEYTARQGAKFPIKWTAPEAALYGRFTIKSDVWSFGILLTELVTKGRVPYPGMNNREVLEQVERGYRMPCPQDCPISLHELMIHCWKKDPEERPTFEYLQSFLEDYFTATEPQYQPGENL
Sequence of EPHB1 (P54762 whole entry, looked up): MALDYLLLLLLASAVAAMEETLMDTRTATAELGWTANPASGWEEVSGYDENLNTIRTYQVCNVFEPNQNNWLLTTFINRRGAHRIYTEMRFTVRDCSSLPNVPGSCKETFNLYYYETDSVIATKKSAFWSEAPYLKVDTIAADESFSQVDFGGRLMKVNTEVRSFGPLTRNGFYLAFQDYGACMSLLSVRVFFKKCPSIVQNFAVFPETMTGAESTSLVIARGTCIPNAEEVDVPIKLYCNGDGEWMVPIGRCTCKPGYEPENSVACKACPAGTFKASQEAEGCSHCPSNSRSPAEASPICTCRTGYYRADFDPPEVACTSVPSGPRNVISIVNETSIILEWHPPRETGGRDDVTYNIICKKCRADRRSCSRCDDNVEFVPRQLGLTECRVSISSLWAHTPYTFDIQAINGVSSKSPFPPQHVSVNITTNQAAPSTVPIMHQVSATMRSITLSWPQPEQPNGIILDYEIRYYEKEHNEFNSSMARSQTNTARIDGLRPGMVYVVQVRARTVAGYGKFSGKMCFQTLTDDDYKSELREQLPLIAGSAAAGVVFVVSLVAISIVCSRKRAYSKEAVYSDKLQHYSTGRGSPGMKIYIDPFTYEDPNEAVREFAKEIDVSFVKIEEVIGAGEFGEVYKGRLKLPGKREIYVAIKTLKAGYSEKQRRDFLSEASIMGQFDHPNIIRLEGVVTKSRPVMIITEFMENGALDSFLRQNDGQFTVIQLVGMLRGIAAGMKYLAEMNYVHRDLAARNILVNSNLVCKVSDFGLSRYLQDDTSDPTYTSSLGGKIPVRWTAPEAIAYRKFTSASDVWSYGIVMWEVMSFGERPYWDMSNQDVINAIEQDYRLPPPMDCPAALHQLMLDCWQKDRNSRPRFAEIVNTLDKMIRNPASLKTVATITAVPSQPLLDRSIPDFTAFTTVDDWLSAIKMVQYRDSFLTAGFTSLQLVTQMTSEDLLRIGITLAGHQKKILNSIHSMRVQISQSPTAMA
Sequence of Hck (P08631 whole entry, looked up): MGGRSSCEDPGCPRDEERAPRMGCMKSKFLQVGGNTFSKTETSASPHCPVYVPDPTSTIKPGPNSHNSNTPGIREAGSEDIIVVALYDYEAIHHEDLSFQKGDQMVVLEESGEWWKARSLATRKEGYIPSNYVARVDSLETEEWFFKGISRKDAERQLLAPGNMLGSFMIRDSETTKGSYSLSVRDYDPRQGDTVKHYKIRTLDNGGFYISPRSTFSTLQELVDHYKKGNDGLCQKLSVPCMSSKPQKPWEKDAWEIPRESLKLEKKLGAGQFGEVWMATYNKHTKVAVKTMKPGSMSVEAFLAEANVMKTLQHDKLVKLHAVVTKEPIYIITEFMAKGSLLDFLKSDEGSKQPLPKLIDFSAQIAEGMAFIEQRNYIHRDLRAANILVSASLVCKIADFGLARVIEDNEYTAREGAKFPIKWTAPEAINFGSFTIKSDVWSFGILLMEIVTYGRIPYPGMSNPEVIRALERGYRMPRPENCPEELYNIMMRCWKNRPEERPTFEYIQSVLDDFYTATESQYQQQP

Sequence	SH2 binding enrichment (SHP2-C SH2)	SH2 binding enrichment (Grb2 SH2)	SH2 binding enrichment (c-Src SH2)	phosphorylation enrichment (Fer (mouse))	phosphorylation enrichment (Fes)	phosphorylation enrichment (Hck)	phosphorylation enrichment (c-Src)	phosphorylation enrichment (MERTK)	phosphorylation enrichment (FGFR1)	phosphorylation enrichment (c-Abl (mouse))	phosphorylation enrichment (AncSZ)	phosphorylation enrichment (Fyn)	phosphorylation enrichment (EPHB1)	phosphorylation enrichment (FGFR3)	phosphorylation enrichment (EPHB2)	phosphorylation enrichment (Jak2)
SNTFLYQLVFD [EXO1_Y284_N279S]	1.05	1.17	0.833	4.62	1.49	2.63	2.22	5.86	1.69	0.784	1.56	1.61	5.47	1.9	3.93	1.36
SPLEVYVDKSQ [FLNA_Y373_F370L]	0.585	0.859	0.477	0.521	1.25	0.523	0.508	0.47	0.631	0.723	1.2	0.469	0.653	0.74	0.716	1.14
SPPILYSFFLD [FCRL6_Y239_YF]	1.01	1.21	0.74	1.84	1.14	2.08	3.23	9.91	1.4	0.901	1.19	2.28	2.85	1.38	1.97	1.18
SQAPGYSYTAA [CYCS_Y47_G42S]	0.631	0.763	1.07	0.499	0.666	0.422	0.594	0.45	0.593	0.708	0.637	0.454	0.466	0.43	0.408	0.765
SQQTFYRVSNM [ABCD1_Y181_YF]	0.762	0.82	0.525	0.39	0.741	0.513	0.408	0.388	0.433	0.492	0.564	0.409	0.31	0.575	0.507	0.546
SSDPDYLAAVD [GLB1_Y154]	0.742	1.02	0.482	0.604	1.27	0.631	0.55	0.487	0.56	0.814	1.34	0.656	0.693	0.885	0.74	1.12
SSEILYHIIKG [CDH17_Y489_K486E]	1.18	1.2	2.4	1.08	0.875	5.02	4.11	8.04	10.9	10.4	1.38	2.85	0.806	8.65	0.684	1.69

Second part, led by results:

SH2 binding enrichment (SHP2-C SH2)	SH2 binding enrichment (Grb2 SH2)	SH2 binding enrichment (c-Src SH2)	Sequence	phosphorylation enrichment (Fer (mouse))	phosphorylation enrichment (Fes)	phosphorylation enrichment (Hck)	phosphorylation enrichment (c-Src)	phosphorylation enrichment (MERTK)	phosphorylation enrichment (FGFR1)	phosphorylation enrichment (c-Abl (mouse))	phosphorylation enrichment (AncSZ)	phosphorylation enrichment (Fyn)	phosphorylation enrichment (EPHB1)	phosphorylation enrichment (FGFR3)	phosphorylation enrichment (EPHB2)	phosphorylation enrichment (Jak2)
0.718	0.828	0.448	SLTGAYTSGIP [POM121C_Y378]	0.306	0.533	0.357	0.326	0.349	0.494	0.52	0.443	0.376	0.299	0.408	0.393	0.44
0.705	0.79	0.526	SNKELYEKFMI	10.2	0.872	1.45	1.78	1.51	0.507	0.559	0.859	1.14	0.571	0.543	0.539	0.894
0.596	0.723	0.552	SRGLAYPARSA [LEMD2_Y122_P126S]	0.381	0.529	0.25	0.431	0.35	0.288	0.382	0.501	0.316	0.244	0.275	0.334	0.312
0.786	0.789	0.418	SRKSEYLLPVA [MYLK_Y611]	0.44	0.602	0.465	0.526	0.413	0.392	0.93	0.748	0.619	0.504	0.569	0.512	0.509
2.18	0.984	0.825	SRPTQYSSFAC [SPEM2_Y104_S108A]	0.435	0.727	0.511	0.665	0.519	0.482	0.736	0.66	0.563	0.362	0.533	0.494	0.733
0.486	0.73	0.545	SSAETYSRMCL [NBEAL2_Y1835_R1839C]	1.01	0.851	0.859	0.708	0.561	0.426	0.849	0.84	0.526	0.649	0.669	0.616	0.695
0.843	0.977	0.583	SSGSRYQPLAS [NCAPD2_Y1325_T1321S]	0.392	0.558	0.442	0.453	0.43	0.468	0.488	0.529	0.384	0.366	0.433	0.431	0.531
0.678	0.893	0.527	SSQVLYKLEQS [THADA_Y701]	0.431	0.726	0.487	0.706	0.442	0.434	0.496	0.628	0.48	0.476	0.507	0.592	0.731
0.586	0.546	0.336	STEVIYLPRRK [STK11_Y36_Q37L]	0.526	0.589	0.515	0.591	0.618	0.52	0.466	0.624	0.7	0.419	0.53	0.588	0.568
